Experiment [1] addresses Cynomolgus CD3ε/δ (cynomolgus monkey) (UniProt Q95LI5). The experiment can be described thus: kinetic binding analysis (ka/kd); method not stated.
The target in the next experiment is Human CD3ε/δ (human) (UniProt P07766). The description is as above.
Chain of UniProt P07766 (P07766 23-126, stated change not applied, chain 1 of 2): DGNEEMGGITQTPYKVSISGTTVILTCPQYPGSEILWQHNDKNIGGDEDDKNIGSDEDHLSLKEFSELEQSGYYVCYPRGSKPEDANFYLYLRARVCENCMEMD
Chain of UniProt P07766 (P04234 22-105, stated change not applied, chain 2 of 2, further chain): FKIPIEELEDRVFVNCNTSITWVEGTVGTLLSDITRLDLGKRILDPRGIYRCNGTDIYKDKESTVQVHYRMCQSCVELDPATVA

Chain of UniProt Q95LI5 (Q95LI5 22-117, stated change not applied, chain 1 of 2): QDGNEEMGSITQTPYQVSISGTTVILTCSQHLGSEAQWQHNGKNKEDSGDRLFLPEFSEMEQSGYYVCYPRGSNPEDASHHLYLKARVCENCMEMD
Chain of UniProt Q95LI5 (Q95LI8 22-105, stated change not applied, chain 2 of 2, further chain): as the sequence (P04234 22-105, stated change not applied, chain 2 of 2, further chain) above, with I5V, N15K, I20V, S32T, D33N, I34N, T64A, S74N, V83L counted along it

B1: DART-A (sequence-optimized CD123×CD3 bispecific diabody) (bispecific antibody)
chain 1: QAVVTQEPSLTVSPGGTVTLTCRSSTGAVTTSNYANWVQQKPGQAPRGLIGGTNKRAPWTPARFSGSLLGGKAALTITGAQAEDEADYYCALWYSNLWVFGGGTKLTVLGGGGSGGGGEVQLVQSGAELKKPGASVKVSCKASGYTFTDYYMKWVRQAPGQGLEWIGDIIPSNGATFYNQKFKGRVTITVDKSTSTAYMELSSLRSEDTAVYYCARSHLLRASWFAYWGQGTLVTVSSGGCGGGEVAALEKEVAALEKEVAALEKEVAALEK
chain 2: DFVMTQSPDSLAVSLGERVTMSCKSSQSLLNSGNQKNYLTWYQQKPGQPPKLLIYWASTRESGVPDRFSGSGSGTDFTLTISSLQAEDVAVYYCQNDYSYPYTFGQGTKLEIKGGGSGGGGEVQLVESGGGLVQPGGSLRLSCAASGFTFSTYAMNWVRQAPGKGLEWVGRIRSKYNNYATYYADSVKDRFTISRDDSKNSLYLQMNSLKTEDTAVYYCVRHGNFGNSYVSWFAYWGQGTLVTVSSGGCGGGKVAALKEKVAALKEKVAALKEKVAALKE
In experiment [1], B1 displayed a Kd of 9.2 nM, a koff of 0.005 s⁻¹ and a kon of 550000 M⁻¹ s⁻¹. In the experiment with Human CD3ε/δ (human), the Kd turned out to be 9 nM, the koff worked out at 0.005 s⁻¹ and the kon is 570000 M⁻¹ s⁻¹.

What is called Kd is the constant that tells how readily two partners part at equilibrium. Read a high Kd as weaker binding. One may read the koff as the first-order rate constant of dissociation. Read a high koff as fast dissociation. By kon is commonly meant the rate constant with which the complex forms. The low end stands for slow association, the high end for fast association.

Source of the values: US20210395374A1.
